# In publication PMC7360973, “Feedback regulation of heat shock factor 1 (Hsf1) activity by Hsp70‐mediated trimer unzipping and dissociation from DNA” (The EMBO Journal, 2020):
# Ends that are not written are not given here.
# Assays:
# Human Hsc70 (HSPA8) [1] = molecular target: T1, Human Hsc70 (HSPA8) (human, UniProt P11142 1-646); experiment: fluorescence polarisation; fluorescein-labelled peptide at 1 μM titrated with Hsc70 (0–60 μM), 2 h at 25°C, HKM150 buffer (25 mM HEPES/KOH pH 7.6, 150 mM KCl, 5 mM MgCl2); Hsc70 concentrated in the presence of 1 mM ATP; quadratic fit; conditions: both partners purified
# T1 construct: Hsc70 (HSPA8), constitutive Hsp70, human, wild type; In the functional rows from MEF and HeLa cells the Hsc70/Hsp70 is the cells' own; this molecule stands for it there; source: E. coli BL21 (DE3) Rosetta, purified (Ni-IDA, Ulp1 cleavage, reverse Ni-IDA)
# T1 sequence (P11142 whole entry): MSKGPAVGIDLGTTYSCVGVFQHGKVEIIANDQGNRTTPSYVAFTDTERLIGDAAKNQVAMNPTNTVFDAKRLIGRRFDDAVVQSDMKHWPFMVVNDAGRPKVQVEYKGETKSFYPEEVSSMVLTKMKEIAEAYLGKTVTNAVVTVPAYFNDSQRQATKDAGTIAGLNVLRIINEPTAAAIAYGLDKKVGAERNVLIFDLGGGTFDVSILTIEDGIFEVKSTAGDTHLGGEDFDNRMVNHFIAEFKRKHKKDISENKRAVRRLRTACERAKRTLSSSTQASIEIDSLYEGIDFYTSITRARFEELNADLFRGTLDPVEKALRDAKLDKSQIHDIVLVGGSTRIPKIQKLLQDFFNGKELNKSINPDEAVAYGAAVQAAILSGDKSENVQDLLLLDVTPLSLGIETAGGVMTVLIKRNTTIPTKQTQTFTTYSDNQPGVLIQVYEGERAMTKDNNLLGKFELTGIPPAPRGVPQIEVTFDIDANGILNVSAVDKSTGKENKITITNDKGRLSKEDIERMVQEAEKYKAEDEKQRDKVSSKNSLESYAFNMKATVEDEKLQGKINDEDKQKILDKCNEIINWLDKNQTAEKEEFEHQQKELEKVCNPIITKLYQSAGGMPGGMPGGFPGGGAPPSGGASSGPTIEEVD
# [2] = molecular target: the molecule itself; experiment: native gel or EMSA; blue-native PAGE (8% gel, on ice) of purified Hsf1 wild type or variants, also after 10 min at 4–42°C (5 μM protein); Coomassie stain or immunoblot with Hsf1 antiserum
# [3] = molecular target: the molecule itself; experiment: SEC + native gel or EMSA; trimer-to-monomer ratio of freshly purified Hsf1 in the absence of heat shock, by gel filtration (Superdex 200) and BN-PAGE
# [4] = molecular target: the molecule itself; experiment: native gel or EMSA; blue-native PAGE of lysates (15 μg total protein) of transfected HSF1−/− MEFs, immunoblot with Hsf1 antiserum
# Human Hsc70 (HSPA8) [5] = molecular target: T1, Human Hsc70 (HSPA8); experiment: HDX-MS; 6 μM Hsf1 (monomer or trimer) pre-incubated 30 min at 25°C with 12 μM Hsc70 or 9 μM DnaJB1 in 25 mM HEPES/NaOH pH 7.5, 150 mM NaCl, 10% glycerol, 2 mM DTT; diluted 10-fold in D2O buffer, 30 s at 25°C; online pepsin digestion; conditions: both partners purified
binder,measurement,setting,value
"SGKQLVHYTAQC(fluorescein‑5‑maleimide) (Hsf1, human, residues 461-471 (in the TAD); C-terminal cysteine for labelling, not part of the Hsf1 stretch; also called residues 461–471) [Hsf1 peptide S461‐Q471‐C]",Kd,Human Hsc70 (HSPA8) [1],5 to 30 µM
"Hsf1∆(202–213) (natural protein, human, UniProt Q00613 1-529, looked up, source: E. coli BL21 (DE3) Rosetta, purified (Ni-IDA, Ulp1 cleavage, Superdex 200); not shown: His6-SUMO, N-terminal, cleaved) MDLPVGPGAAGPSNVPAFLTKLWTLVSDPDTDALICWSPSGNSFHVFDQGQFAKEVLPKYFKHNNMASFVRQLNMYGFRKVVHIEQGGLVKPERDDTEFQHPCFLRGQEQLLENIKRKVTSVSTLKSEDIKIRQDSVTKLLTDVQLMKGKQECMDSKLLAMKHENEALWREVASLRQKHAQQQKVVNKLIQFLISLVQSNRNDSGSAHSMPKYSRQFSLEHVHGSGPYSAPSPAYSSSSLYAPDAVASSGPIISDITELAPASPMASPGGSIDERPLSSSPLVRVKEEPPSPPQSPRVEEASPGRPSSVDTLLSPTALIDSILRESEPAPASVTALTDARGHTDTEGRPPSPPPTSTPEKCLSVACLDKNELSDHLDAMDSNLDNLQTMLSSHGFSVDTSALLDLFSPSVTVPDMSLPDLDSSLASIQELLSPQEPPRPPEAENSSPDSGKQLVHYTAQPLFLLDPGSVDTGSNDLPVLFELGEGSYFSEGDGFAEDPTISLLTGSEPPKAKDPTVS",binding result,[2],binds
"Hsf1‐I190S,I194S (natural protein, human, UniProt Q00613 1-529, looked up, Hsf1, human, with I190S and I194S in HR-B; source: purified (gel filtration)) MDLPVGPGAAGPSNVPAFLTKLWTLVSDPDTDALICWSPSGNSFHVFDQGQFAKEVLPKYFKHNNMASFVRQLNMYGFRKVVHIEQGGLVKPERDDTEFQHPCFLRGQEQLLENIKRKVTSVSTLKSEDIKIRQDSVTKLLTDVQLMKGKQECMDSKLLAMKHENEALWREVASLRQKHAQQQKVVNKLSQFLSSLVQSNRILGVKRKIPLMLNDSGSAHSMPKYSRQFSLEHVHGSGPYSAPSPAYSSSSLYAPDAVASSGPIISDITELAPASPMASPGGSIDERPLSSSPLVRVKEEPPSPPQSPRVEEASPGRPSSVDTLLSPTALIDSILRESEPAPASVTALTDARGHTDTEGRPPSPPPTSTPEKCLSVACLDKNELSDHLDAMDSNLDNLQTMLSSHGFSVDTSALLDLFSPSVTVPDMSLPDLDSSLASIQELLSPQEPPRPPEAENSSPDSGKQLVHYTAQPLFLLDPGSVDTGSNDLPVLFELGEGSYFSEGDGFAEDPTISLLTGSEPPKAKDPTVS",stoichiometry N,[3],3
"Hsf1‐I202S,L203S,V205S expressed from pIRES‐HSF1‐I202S,L203S,V205S_hrGFP in cells (natural protein, human, UniProt Q00613 1-529, looked up, Hsf1, human, with I202S, L203S, V205S; source: HSF1−/− MEF or HeLa, transiently transfected, in lysate or in cells) MDLPVGPGAAGPSNVPAFLTKLWTLVSDPDTDALICWSPSGNSFHVFDQGQFAKEVLPKYFKHNNMASFVRQLNMYGFRKVVHIEQGGLVKPERDDTEFQHPCFLRGQEQLLENIKRKVTSVSTLKSEDIKIRQDSVTKLLTDVQLMKGKQECMDSKLLAMKHENEALWREVASLRQKHAQQQKVVNKLIQFLISLVQSNRSSGSKRKIPLMLNDSGSAHSMPKYSRQFSLEHVHGSGPYSAPSPAYSSSSLYAPDAVASSGPIISDITELAPASPMASPGGSIDERPLSSSPLVRVKEEPPSPPQSPRVEEASPGRPSSVDTLLSPTALIDSILRESEPAPASVTALTDARGHTDTEGRPPSPPPTSTPEKCLSVACLDKNELSDHLDAMDSNLDNLQTMLSSHGFSVDTSALLDLFSPSVTVPDMSLPDLDSSLASIQELLSPQEPPRPPEAENSSPDSGKQLVHYTAQPLFLLDPGSVDTGSNDLPVLFELGEGSYFSEGDGFAEDPTISLLTGSEPPKAKDPTVS",stoichiometry N,[4],3
"NRILGVKRKC(fluorescein‑5‑maleimide) (Hsf1, human, residues 200-208; C-terminal cysteine for labelling, not part of the Hsf1 stretch) [Hsf1 peptide N200‐K208‐C]",binding result,Human Hsc70 (HSPA8) [1],binds
"GVKRKIPLMLNC(fluorescein‑5‑maleimide) (Hsf1, human, residues 204-214; C-terminal cysteine for labelling, not part of the Hsf1 stretch) [Hsf1 peptide G204‐N214‐C]",binding result,Human Hsc70 (HSPA8) [1],binds
"YTAQPLFLLDPGSC(fluorescein‑5‑maleimide) (Hsf1, human, residues 468-480 (in the TAD); C-terminal cysteine for labelling, not part of the Hsf1 stretch) [Hsf1 peptide Y468‐S480‐C]",binding result,Human Hsc70 (HSPA8) [1],binds
"Human heat shock transcription factor 1 (Hsf1), wild type (natural protein, UniProt Q00613 1-529, looked up, heat shock transcription factor 1 (Hsf1), human, wild type; Purified both as a monomer and as a trimer; One molecule is used for both states; the assay's format tells which was used; also called Hsf1wt; wt; source: E. coli BL21 (DE3) Rosetta, purified (Ni-IDA, Ulp1 cleavage, Superdex 200); monomeric and trimeric fractions collected separately; not shown: His6-SUMO, N-terminal, cleaved) MDLPVGPGAAGPSNVPAFLTKLWTLVSDPDTDALICWSPSGNSFHVFDQGQFAKEVLPKYFKHNNMASFVRQLNMYGFRKVVHIEQGGLVKPERDDTEFQHPCFLRGQEQLLENIKRKVTSVSTLKSEDIKIRQDSVTKLLTDVQLMKGKQECMDSKLLAMKHENEALWREVASLRQKHAQQQKVVNKLIQFLISLVQSNRILGVKRKIPLMLNDSGSAHSMPKYSRQFSLEHVHGSGPYSAPSPAYSSSSLYAPDAVASSGPIISDITELAPASPMASPGGSIDERPLSSSPLVRVKEEPPSPPQSPRVEEASPGRPSSVDTLLSPTALIDSILRESEPAPASVTALTDARGHTDTEGRPPSPPPTSTPEKCLSVACLDKNELSDHLDAMDSNLDNLQTMLSSHGFSVDTSALLDLFSPSVTVPDMSLPDLDSSLASIQELLSPQEPPRPPEAENSSPDSGKQLVHYTAQPLFLLDPGSVDTGSNDLPVLFELGEGSYFSEGDGFAEDPTISLLTGSEPPKAKDPTVS",binding result,Human Hsc70 (HSPA8) [5],binds
